This is an account of results in PMC7023026, “A Label-Free Fluorescent Aptasensor for Detection of Staphylococcal Enterotoxin A Based on Aptamer-Functionalized Silver Nanoclusters”.

This data set has as its target Staphylococcal enterotoxin A (SEA) (Staphylococcus aureus, UniProt P0A0L2 25-257).

Chain of Staphylococcal enterotoxin A (SEA) (P0A0L2 25-257): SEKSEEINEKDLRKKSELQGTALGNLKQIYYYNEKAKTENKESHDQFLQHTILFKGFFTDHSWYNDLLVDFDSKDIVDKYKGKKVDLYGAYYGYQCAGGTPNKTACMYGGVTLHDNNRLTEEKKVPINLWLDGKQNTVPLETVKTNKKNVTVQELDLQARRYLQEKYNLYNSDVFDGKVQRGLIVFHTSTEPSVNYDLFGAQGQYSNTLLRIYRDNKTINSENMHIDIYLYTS

B1: C6G5C6-apt (AgNC template) (structured_DNA)
DNA: CCCCCCGGGGGCCCCCCAGCAGCACAGAGGTCAGATGTACTTATGCATTTCCTCCCACGATCTTATTTGAGAGTGACCCTATGCGTGCTACCGTGAA
For the molecule B1, the binding result was “binds”.
